Assay results published in a protein production outcome set (Wang et al. 2014).

Assay: label from the status in PepcDB records

Sequence	protein production
MTATGLERSTANAQSLRNDSHQRSFHRFDGLTASSDITLEAVSSVDAIAAADWDACARSGTIVPHPDGAGGACTTATAAYNPFLSHAFFTALEQSGSASPRTGWGPRHLIAKHEGAIVGIVPCYLKSHSQGEYVFDRGWADAYERAGGNYYPKLQVSVPFTPATGPRLLIRDRIDSARVAGALANGLMALCDLSKASSVHVTFARESEWRFLAECGFLQRTDQQFHWHNAGYSSFDDFLATMNSRHRKGIKRERRDAVASGITIHHLTGADITEDAWDAFFEFYIETGSRKWGRPYLTREFYSLIGQSMSEDVLLVMAKRNGRWIAGAINFIGGDTLFGRHWGAIEHHPFLHFEVCYYQAIDFAITRGLKVVEAGAQGEHKIARGYLPQTTYSAHFIADPALRRAIADYLKRERMYVDEMGRELTEAGPFKKGNIADPA	failed
MSLGNIFVTGRIAFSLKYEQQTQSLVVHVKECHQLAYADEAKKRSNPYVKTYLLPDKSRQGKRKTSIKRDTVNPLYDETLRYEIPESLLAQRTLQFSVWHHGRFGRNTFLGEAEIQMDSWKLDKKLDHCLPLHGKISAESEGHHHHHH	not failed
MDLKTSYKGISLNPIYAGSSAVATVSENGKILATPVLDEINIIDLTPGSRKILHKISNEDEQEITALKLTPDGQYLTYVSQAQLLKIFHLKTGKVVRSMKISSPSYILDADSTSTLLAVGGTDGSIIVVDIENGYITHSFKGHGGTISSLKFYGQLNSKIWLLASGDTNGMVKVWDLVKRKCLHTLQEHTSAVRGLDIIEVPDNDEPSLNLLSGGRDDIINLWDFNMKKKCKLLKTLPVNQQVESCGFLKDGDGKRIIYTAGGDAIFQLIDSESGSVLKRTNKPIEELFIIGVLPILSNSQMFLVLSDQTLQLINVEEDLKNDEDTIQVTSSIAGNHGIIADMRYVGPELNKLALATNSPSLRIIPVPDLSGPEASLPLDVEIYEGHEDLLNSLDATEDGLWIATASKDNTAIVWRYNENSCKFDIYAKYIGHSAAVTAVGLPNIVSKGYPEFLLTASNDLTIKKWIIPKPTASMDVQIIKVSEYTRHAHEKDINALSVSPNDSIFATASYDKTCKIWNLENGELEATLANHKRGLWDVSFCQYDKLLATSSGDKTVKIWSLDTFSVMKTLEGHTNAVQRCSFINKQKQLISCGADGLIKIWDCSSGECLKTLDGHNNRLWALSTMNDGDMIVSADADGVFQFWKDCTEQEIEEEQEKAKLQVEQEQSLQNYMSKGDWTNAFLLAMTLDHPMRLFNVLKRALGESRSRQDTEEGKIEVIFNEELDQAISILNDEQLILLMKRCRDWNTNAKTHTIAQRTIRCILMHHNIAKLSEIPGMVKIVDAIIPYTQRHFTRVDNLVEQSYILDYALVEMDKLF	failed
MNTILSTLFIVLAAWFVISRFLPVKGVQNINGKELKSIVGKQGKYFIDVRTVGEYRGNHMKGFQNIPLNDLASKTNQLDKNREVIVICQSGMRSKQAAKMLKKLGFQHVINVSGGMNGL	failed
QKEKCFKCNKCEKTFSCSKYLTQHERIHTRGVK	not failed
EHAKQASSYIPLDRLSISYCRSSGPGGQNVNKVNSKAEVRFHLASADWIEEPVRQKIALTHKNKINKAGELVLTSESSRYQFRNLAECLQKIRDMIAEA	not failed
MSTRPERERASTSTDAVLQATVALSAGHKPAFRGFVKDPPRARAHAAAMFVSNAREAEPFVAPDLSEIRVLVDRATVGVASVSLAHATVAAGAETVWHRLQATDEIYFVLSGRGLVSVGDESGEVGPGDAVWIPAGVPQKIRALGSVPLTFLCAWGPAYLPERDQRMGEAAVIGAWPLEHHHHHH	not failed
NQLWTVEEQKKLEQLLIKYPPEEVESRRWQKIADELGNRTAKQVASQVQKYFIKLTKAGIPV	not failed
MGSSHHHHHHSSGRENLYFQGMTKNTRFSPEVRQRAVRMVLESQGEYDSQWATICSIAPKIGCTPETLRVWGRQHERDTGGGDGGLTTAERQRLKEPERENRELRRSNDILRQASAYFAKAEFDRLWKK	not failed
MKVAVLDFGKTNSKLFVFGQDGGILDERRTQPKWTHQDGFSVLDEAALHDWALGAVTEAVENHGVEGVMVSGHGCTFALVDDAALTHPILDYEQEPPAEIAARIDHRIPDFAETFSPRLPLGFNYGRHMLWVQEVDPDAFAAAKSILGYPQYWSWRLGGRPVSEVSYLGCHSHLWAPRSQDFSSLVDAEGWRGQMPAFARAGAVIGERRLGSSSRPIAIHNGVHDSNAALHAYRLEHHHHHH	not failed
MEQPQEEAPEVREEEEKEEVAEAEGAPELNGGPQHALPSSSYTDLSRSSSPPSLLDQLQMGCDGASCGSLNMECRVCGDKASGFHYGVHACEGCKGFFRRTIRMKLEYEKCERSCKIQKKNRNKCQYCRFQKCLALGMSHNAIRFGRMPEAEKRKLVAGLTANEGSQYNPQVADLKAFSKHIYNAYLKNFNMTKKKARSILTGKASHTAPFVIHDIETLWQAEKGLVWKQLVNGLPPYKEISVHVFYRCQCTTVETVRELTEFAKSIPSFSSLFLNDQVTLLKYGVHEAIFAMLASIVNKDGLLVANGSGFVTREFLRSLRKPFSDIIEPKFEFAVKFNALELDDSDLALFIAAIILCGGE	not failed
MFLNGKVFIKGALGPRRRDASVSATQSQGAGGGVWGGPGSELAPPSRPRGRASGLLRIKLFEASRLRSRERKMAAPAGGGGSAVSVLAPNGRRHTVKVTPSTVLLQVLEDTCRRQDFNPSEYDLKFQRTVLDLSLQWRFANLPNNAKLEMVPASRSREGPENTVRIALQLDDGCRLQDSFCSRQTLWELLNHFAQTRERLQQLGERTPVCVYMRDEVTGRAALQNTTLQSLGLTGGSATIRFVIKQYDTTGKQESIAVRSKPPGSPVSSMSADQASSSPLLPLNSGEFSRGDLNHQGGASTSGTSLKGGPKPADAQTKQSTTKESASAPFIPFSGGGQRLGGPSVSLRSLTSPAAKSSTSFSGPGGPSKPKKSKPGEEPPQEPEPPVDRDPVVCHPDLEDLLQPWPAEVPDEFFEVTVDDVRRRLAQLKSERKRLEEAPLVTKAFREAQMKEKLERYPKVALRVLFPDRYILQGFFRPSETVGDLRDFVRSHLGNPELSFYLFIAPPKMVLDDHTLTLFQVPIALRVLLGLAVLGGQALCCGWVGKEPWQALQWVIKPLEPVNSEGAVASEVVSDWAFQPPPLPAWPRGGDWPAQLAGLLSSAGAA	failed
MKMDTGALTFQQKIYWLVKQIPLGRVATYGQIAALCGWPRHGRYVGYALYRVAPNSDIPWHRVVNAQGKISYAPQRRGTDELQRWRLAAEGIIFTAGDRINLRRYQWQPPATVYQQLIWPEGAATDSAKAKVG	failed
MILSIDSNDANTAPLHKKTISSLSGAVESMMKKLEDVGVLVARILMPILFITAGWGKITGYAGTQQYMEAMGVPGFMLPLVILLEFGGGLAILFGFLTRTTALFTAGFTLLTAFLFHSNFAEGVNSLMFMKNLTISGGFLLLAITGPGAYSIDRLLNKKW	failed
EASSKSYRELIIEGLTALKERKGSSRPALKKFIKENYPIVGSASNFDLYFNNAIKKGVEAGDFEQPKGPAGAVKLAKK	not failed
MADHNNTPPFDLTKLDHYIKYQPREEAEDFFVHVEVKVLGKGSSPLEISFSTSVYEFVWEDEDCYELVELYEFFTEDAGIDAFEAQFLVNDLILYVNKTTRPLDEDFTGVFKLMAEVTLKPVQLNHAGSQKTESQQP	failed
MFMNRLFGKPKQETSTLQTLDKLNETLEMLEKKENVLLKKATGEVEKAKEFSRAKNKRAAIQCLKRKRLYEQQVEQLGNFQLRIHDQMIMLEGAKATTETVDALRTGASAMKAMQKATNIDDVDKTMDEINEQTENMKQIQEALSAPFGANDFDEDELEAELDELEGAELEEQLLQPVPIHVPQGNKPARAPAQKQPTAEEDELAALQAEMAL	failed
MSVQLSEGQTFGPRAINVTRTTLVRYAGASGDFNPIHYSDRAAREAGMDGVIAHGMWTMGAALGTVIDWVGGPERVVSQRARFTRPVQVPDTEGGTAIEVAATVRKVSEEAATLAVDVKCDGQSVLGRVEVVVRQGEQ	failed
MSPPGQHYAQADAPQRPVLVQESSYLQLSSEAAEFVTQCQICGKPCQLADEPLWTTLATTIPSTIGAMAVSSAPHLPSGSFEWLTAGRVDPGSRVVVLCPTVAHCRAVASHGADVLAVHRDPDTAEKLNRIPGVMAVCGSPESLPLNSSSFDAVLVHQGFHELAPGLALPEIARVLRPGSVLGVSWLVRDDTVPWVKRLAALLRTVDENAMSGDYGTESVHELISSKYFPEDEHTTKRLWVPVNRDSLVAMAAARPAVRALDSDARSNVLTKVAALADDSAGTSGLRLPYQLECWRAWVDHDELTTPIRPHDDGLTITL	failed
MKQRVITAVIALILFIPIVLAGGLWMDWLTVLFAAVGISEIFLMKKQILVSFDFLLALLATLTWTVPDSFFKVFPSNITKLGVFYGIIMLFLTWTVLSKNKTTFDDVGVYILAALYIGIGFHYMAAIRAYPQNGLALLGYVFVVVWSTDIGAYMIGRKIGKHKLWPVISPNKTWEGSIGAVICALICSAIYLAILSSFNITFGVSELSMVVLAFFLSIVGQMGDLVESAYKRFYGVKDSGKILPGHGGILDRFDSMLFVLPVVAAILGIVH	failed
MPKSKEMEEEMKENSQDKNFMYKLAEFIVDKRNLFFLIYIIALVFCIFSRNWVKVENDVTKYLPDSTETRQGLTVMNDQFVTYGTAQVLLANISYDRAQEAADMIEDINGVTSVTFDNTEDHYKGTSALLDVTFDGEEEDQISIDAMNEIKDKLTGYDVYYSTSVANDDSANLESEMQVVTAIAAVIIVVVLLLTSKSYAEVPVLLITFIAAALLNMGTNFLLGTISFISNSVTIVLQLALAIDYAIILCHRYTEERENLPAREATITALSKAIPEISSSSLTTVSGLLALAFMQFKIGEDLAVVLIKAIILSLISVFTLMPGLIMVFSKWMDKTVHKNLIPSISAVGKFAIKTKYIIPPIFAAVIIVACVFANMCPYCFSTGSTSTPRKSESTIAQEKIDSTFGSRNMIALVVPAGNYEAEKNLLADLDACDEVKSTQGLANTEAMDGYMLTDSLTPREFSELVGLDYEVAQLLYSAYAINQENYGEVINSSSKYSVPLIDMFEFLLDEIDKGYVTLEGDLKDQMDDLSGQLDKALLQLKTDDYSRLVVYLNLPEEGDETFAFLDRVHEMMAKYYTDNYYVVGNSTSDYDLSSSFSRDNLVISILSALFVIIILLFTFKSAGLPVLLILVIQGSIWINFSFPYLMDSPLYFLGYLVVNSIQMGANIDYAIVISSRYDDLKKQLPIKEAIIETLNQAFPTIITSGSILAAAGILISFLSTNGVISAIGTCLGRGTIISIILVMGVLPQILYLGDVIIEKTRFSINTDNLIQNTGGTMVINGRMRGYVSGIIDAEIHGVIKGEVKGQIDVNNIDVIKKEEPEDGGDGNEEA	failed
